Experimental data taken from article PMC11868117.

What was measured:
Assay in all cases: ELONA (direct, immobilized protein)
[1] = molecular target: SARS-CoV-2 Alpha VOC spike (S) protein (SARS-CoV-2 (Alpha variant)) (UniProt P0DTC2)
[2] = molecular target: SARS-CoV-2 Delta VOC spike (S) protein (SARS-CoV-2 (Delta variant)) (UniProt P0DTC2)
[3] = molecular target: SARS-CoV-2 Omicron VOC spike (S) protein (SARS-CoV-2 (Omicron variant)) (UniProt P0DTC2)

AGTTAGCCGTCATTCAGACGATTTGTCCGTGTTACGATTGGGGAACGTGGATGACATTCTGGACACTCGCCATGCTCGAT [Alpha Apt (Bio)]
Kd [1]: 194 nM

ATCGAGCATGGCGAGTGTCCTATCCCCCATCAACTCAACCCAACCAGTACGACTCCTCCTCGTCTGAATGACGGCTAACT [Delta Apt (Bio)]
Kd [2]: 112 nM

CTGGCCTCACTGGATACTCTAAGACTATTGGTCAAGTTTGCCTTGTCAAGGCTATTGGTCAAGGCAAGGCTGGCCAACCCATGGGTGGAGTTTAGCCAG [Omicron Apt (Bio)]
Kd [3]: 32 nM
